The source of these data is paper PMC8726015.

Experiment in all cases: purified protein
What all share (details): ATP; Mg2+

Substrate in series [1]: CC(C)(CO)[C@@H](O)C(=O)NCCC(=O)NCCS
Type of series: biochemical, Homo sapiens.

Substrate in series [2]: CC(C)(CO)[C@@H](O)C(=O)NCCCC(=O)O
Type of series: biochemical, Homo sapiens.

Substrate in series [3]: CC(C)(CO)[C@@H](O)C(=O)NCCC(=O)NCCS
Type of series: biochemical, Drosophila melanogaster.

Substrate in series [4]: CC(C)(CO)[C@@H](O)C(=O)NCCCC(=O)O
Type of series: biochemical, Drosophila melanogaster.

B1: human pantothenate kinase hPANK3 (Homo sapiens) (protein)
chain: PWFGMDIGGTLVKLSYFEPIDITAEEEQEEVESLKSIRKYLTSNVAYGSTGIRDVHLELKDLTLFGRRGNLHFIRFPTQDLPTFIQMGRDKNFSTLQTVLCATGGGAYKFEKDFRTIGNLHLHKLDELDCLVKGLLYIDSVSFNGQAECYYFANASEPERCQKMPFNLDDPYPLLVVNIGSGVSILAVHSKDNYKRVTGTSLGGGTFLGLCSLLTGCESFEEALEMASKGDSTQADKLVRDIYGGDYERFGLPGWAVASSFGNMIYKEKRESVSKEDLARATLVTITNNIGSVARMCAVNEKINRVVFVGNFLRVNTLSMKLLAYALDYWSKGQLKALFLEHEGYFGAVGALLGLPNFS
For the protein B1, in “purified protein [1]”, the K0.5 was 8.05 ± 1.87 µM, the kcat was found to be 0.41 ± 0.13 s⁻¹ and the kcat/Km was 57600 ± 24600 M⁻¹ s⁻¹. Besides, in the series “purified protein [2]”, the K0.5 was found to be 36.2 ± 2.1 µM, the kcat was found to be 0.67 ± 0.02 s⁻¹ and the kcat/Km came out at 19500 ± 1600 M⁻¹ s⁻¹.

B2: fruit fly pantothenate kinase dPANK/FblD (Fumble D) (Drosophila melanogaster) (protein)
chain: MPWFGMDIGGTLTKLVYFEPKDITPDEQDREAGILRNIRRYLTKNSAYGKTGHRDTHLQMDNVEIRKRRGSLHFIRFQTTDMGNFLSLAKQKGMAELVTTVCATGGGAFKFEQDFRDQVNMKLAKFDELDTLIKGILFADLHNRTECYYYENARDILKSEKQQFNFSQPFPFILVNVGSGVSILAVYGPDNYKRISGTSLGGGTFLGLCCLLTGCTSFEEAIQLATKGDNRKVDKLVKDIYGGDYNRFGLPGDLVASSFGQMHLNDKRVSVSREDLANATLVTITNNIGSIARMCALNEKIDRVVFVGNFLRVNPISMKLLAYAMEFWSNGTMKGLFLEHEGYFGALGCLLQFNGELAAALNDGVEHSIHTESDSASEAAQTSSTADEPPEKAPTSKHSTR
Turning to B2, in the series “purified protein [3]”, the K0.5 was 28.9 ± 13.0 µM. In “purified protein [4]”, the K0.5 came to 82.2 ± 12.4 µM, the kcat came out at 2.72 ± 0.5 s⁻¹ and the kcat/Km stood at 35600 ± 8400 M⁻¹ s⁻¹.

Usually kcat stands for the number of substrate molecules converted per active site and unit of time at saturation. For orientation: kcat/Km means the turnover number divided by the Michaelis constant.
